The target of data set [1] is T1, Lys(Dnp)-ATNATWSPRIVGG-Lys(Abz).
T1 chain: KATNATWSPRIVGGK

The target of data set [2] is T2, Lys(Dnp)-ATNATPWPRIVGG-Lys(Abz).
T2 chain: KATNATPWPRIVGGK

Data set [3] concerns the target T3, Lys(Dnp)-ATNATAIPRIVGG-Lys(Abz).
T3 chain: KATNATAIPRIVGGK

Data set [4] addresses T4, Lys(Dnp)-ATNATFYPRIVGG-Lys(Abz).
T4 chain: KATNATFYPRIVGGK

In data set [5] the target is T5, Lys(Dnp)-ATNATLQPRIVGG-Lys(Abz).
T5 chain: KATNATLQPRIVGGK

Data set [6] deals with T6, Lys(Dnp)-ATNATWTPRIVGG-Lys(Abz).
T6 chain: KATNATWTPRIVGGK

Data set [7] has as its target T7, Lys(Dnp)-ATNATYSPRIVGG-Lys(Abz).
T7 chain: KATNATYSPRIVGGK

Data set [8] deals with T8, Lys(Dnp)-ATNATIHPRIVGG-Lys(Abz).
T8 chain: KATNATIHPRIVGGK

Data set [9] addresses T9, Lys(Dnp)-ATNATVIPRIVGG-Lys(Abz).
T9 chain: KATNATVIPRIVGGK

Data set [10] deals with T10, Lys(Dnp)-ATNATLSPRIVGG-Lys(Abz).
T10 chain: KATNATLSPRIVGGK

The target in data set [11] is T11, Lys(Dnp)-ATNATWQPRIVGG-Lys(Abz).
T11 chain: KATNATWQPRIVGGK

For data set [12], the target named is T12, Lys(Dnp)-ATNATWRPRIVGG-Lys(Abz).
T12 chain: KATNATWRPRIVGGK

Data set [13] has as its target T13, Lys(Dnp)-ATNATMGPRIVGG-Lys(Abz).
T13 chain: KATNATMGPRIVGGK

For data set [14], the target named is T14, Lys(Dnp)-ATNATWKPRIVGG-Lys(Abz).
T14 chain: KATNATWKPRIVGGK

Data set [15] concerns the target T15, Lys(Dnp)-ATNATINPRIVGG-Lys(Abz).
T15 chain: KATNATINPRIVGGK

Data set [16] addresses T16, Lys(Dnp)-ATNATSEPRIVGG-Lys(Abz).
T16 chain: KATNATSEPRIVGGK

Data set [17] addresses T17, Lys(Dnp)-ATNATYYPRIVGG-Lys(Abz).
T17 chain: KATNATYYPRIVGGK

Data set [18] concerns the target T18, Lys(Dnp)-ATNATWDPRIVGG-Lys(Abz).
T18 chain: KATNATWDPRIVGGK

Data set [19] deals with T19, Lys(Dnp)-ATNATQRPRIVGG-Lys(Abz).
T19 chain: KATNATQRPRIVGGK

For data set [20], the target named is T20, Lys(Dnp)-ATNATKWPRIVGG-Lys(Abz).
T20 chain: KATNATKWPRIVGGK

Data set [21] deals with T21, Lys(Dnp)-ATNATEVPRIVGG-Lys(Abz).
T21 chain: KATNATEVPRIVGGK

Data set [22] has as its target T22, Lys(Dnp)-ATNATMPPRIVGG-Lys(Abz).
T22 chain: KATNATMPPRIVGGK

Data set [23] addresses T23, Lys(Dnp)-ATNATKRPRIVGG-Lys(Abz).
T23 chain: KATNATKRPRIVGGK

The target of data set [24] is T24, Lys(Dnp)-ATNATRDPRIVGG-Lys(Abz).
T24 chain: KATNATRDPRIVGGK

Data set [25] deals with T25, Lys(Dnp)-ATNATVRPRIVGG-Lys(Abz).
T25 chain: KATNATVRPRIVGGK

Data set [26] concerns the target T26, Lys(Dnp)-ATNATTWPRIVGG-Lys(Abz).
T26 chain: KATNATTWPRIVGGK

For data set [27], the target named is T27, Lys(Dnp)-ATNATEQPRIVGG-Lys(Abz).
T27 chain: KATNATEQPRIVGGK

Data set [28] addresses T28, Lys(Dnp)-ATNATRIPRIVGG-Lys(Abz).
T28 chain: KATNATRIPRIVGGK

Data set [29] concerns the target T29, Lys(Dnp)-ATNATWYPRIVGG-Lys(Abz).
T29 chain: KATNATWYPRIVGGK

The target in data set [30] is T30, Lys(Dnp)-ATNATFNPRIVGG-Lys(Abz).
T30 chain: KATNATFNPRIVGGK

Data set [31] addresses T31, Lys(Dnp)-ATNATDHPRIVGG-Lys(Abz).
T31 chain: KATNATDHPRIVGGK

The target in data set [32] is T32, Lys(Dnp)-ATNATQSPRIVGG-Lys(Abz).
T32 chain: KATNATQSPRIVGGK

Data set [33] deals with T33, Lys(Dnp)-ATNATPTPRIVGG-Lys(Abz).
T33 chain: KATNATPTPRIVGGK

For data set [34], the target named is T34, Lys(Dnp)-ATNATRGPRIVGG-Lys(Abz).
T34 chain: KATNATRGPRIVGGK

Data set [35] addresses T35, Lys(Dnp)-ATNATYGPRIVGG-Lys(Abz).
T35 chain: KATNATYGPRIVGGK

For data set [36], the target named is T36, Lys(Dnp)-ATNATKLPRIVGG-Lys(Abz).
T36 chain: KATNATKLPRIVGGK

Data set [37] addresses T37, Lys(Dnp)-ATNATQFPRIVGG-Lys(Abz).
T37 chain: KATNATQFPRIVGGK

In data set [38] the target is T38, Lys(Dnp)-ATNATGWPRIVGG-Lys(Abz).
T38 chain: KATNATGWPRIVGGK

The target in data set [39] is T39, Lys(Dnp)-ATNATHNPRIVGG-Lys(Abz).
T39 chain: KATNATHNPRIVGGK

For data set [40], the target named is T40, Lys(Dnp)-ATNATTQPRIVGG-Lys(Abz).
T40 chain: KATNATTQPRIVGGK

Data set [41] addresses T41, Lys(Dnp)-ATNATRVPRIVGG-Lys(Abz).
T41 chain: KATNATRVPRIVGGK

Among the data in patent US20160024487 are FXa kcat/KM values, retold here.

B1: Human plasma purified Factor Xa (protein)
chain 1: ANSFLEEMKKGHLERECMEETCSYEEAREVFEDSDKTNEFWNKYKDGDQCETSPCQNQGKCKDGLGEYTCTCLEGFEGKNCELFTRKLCSLDNGDCDQFCHEEQNSVVCSCARGYTLADNGKACIPTGPYPCGKQTLER
chain 2: IVGGQECKDGECPWQALLINEENEGFCGGTILSEFYILTAAHCLYQAKRFKVRVGDRNTEQEEGGEAVHEVEVVIKHNRFTKETYDFDIAVLRLKTPITFRMNVAPACLPERDWAESTLMTQKTGIVSGFGRTHEKGRQSTRLKMLEVPYVDRNSCKLSSSFIITQNMFCAGYDTKQEDACQGDSGGPHVTRFKDTYFVTGIVSWGEGCARKGKYGIYTKVTAFLKWIDRSMKTRGLPKAKSHAPEVITSSPLK
Regarding B1, the FXa kcat/KM in data set [1] was found to be 52 M⁻¹ s⁻¹; in [2] it was 1300 M⁻¹ s⁻¹; in [3], 220 M⁻¹ s⁻¹; in [4] it was 71 M⁻¹ s⁻¹; in data set [5], 1200 M⁻¹ s⁻¹; in data set [6], 46 M⁻¹ s⁻¹. Moreover, the FXa kcat/KM was 41 M⁻¹ s⁻¹ in data set [7]; 810 M⁻¹ s⁻¹ in data set [8]; 120 M⁻¹ s⁻¹ in data set [9]; 690 M⁻¹ s⁻¹ in data set [10]; 37 M⁻¹ s⁻¹ in data set [11]; 800 M⁻¹ s⁻¹ in data set [12]. For the same protein, the FXa kcat/KM amounted to 54 M⁻¹ s⁻¹ in [13] and 41 M⁻¹ s⁻¹ in [14].

B2: Human plasma purified Factor Xa (Molecular Innovations, Inc) (protein)
chain 1: B1 chain 1
chain 2: B1 chain 2
On to B2, for which the FXa kcat/KM in data set [15] was determined as 870 M⁻¹ s⁻¹; in [16], 22 M⁻¹ s⁻¹; in data set [17] it was 48 M⁻¹ s⁻¹; in data set [2], 1300 M⁻¹ s⁻¹; in data set [18], 16 M⁻¹ s⁻¹; in data set [19], 660 M⁻¹ s⁻¹. Also, the FXa kcat/KM in data set [20] was 130 M⁻¹ s⁻¹; in [21] it was 24 M⁻¹ s⁻¹; in data set [22], 4.1 M⁻¹ s⁻¹; in [23], 91 M⁻¹ s⁻¹; in data set [24] it was 1400 M⁻¹ s⁻¹; in data set [25] it was 430 M⁻¹ s⁻¹. For the same protein, the FXa kcat/KM is 21 M⁻¹ s⁻¹ in data set [26]; 11 M⁻¹ s⁻¹ in data set [27]; 700 M⁻¹ s⁻¹ in data set [28]; 60 M⁻¹ s⁻¹ in data set [29]; 200 M⁻¹ s⁻¹ in data set [30]; 5 M⁻¹ s⁻¹ in [31]. In addition, the FXa kcat/KM in data set [32] worked out at 950 M⁻¹ s⁻¹; in data set [33] it was 840 M⁻¹ s⁻¹; in data set [34], 680 M⁻¹ s⁻¹; in data set [35], 41 M⁻¹ s⁻¹; in data set [36], 89 M⁻¹ s⁻¹; in data set [37] it was 150 M⁻¹ s⁻¹. In addition, the FXa kcat/KM in data set [38] came to 82 M⁻¹ s⁻¹; in data set [39], 71 M⁻¹ s⁻¹; in [40] it was 17 M⁻¹ s⁻¹; in data set [41] it was 510 M⁻¹ s⁻¹.
